Reference: patent US20080199467A1

Target: Fc receptor on THP-1 cells
Test: cell-based or functional assay

Chain of RAGE fusion protein TTP-4000 (Fc fusion) (chain): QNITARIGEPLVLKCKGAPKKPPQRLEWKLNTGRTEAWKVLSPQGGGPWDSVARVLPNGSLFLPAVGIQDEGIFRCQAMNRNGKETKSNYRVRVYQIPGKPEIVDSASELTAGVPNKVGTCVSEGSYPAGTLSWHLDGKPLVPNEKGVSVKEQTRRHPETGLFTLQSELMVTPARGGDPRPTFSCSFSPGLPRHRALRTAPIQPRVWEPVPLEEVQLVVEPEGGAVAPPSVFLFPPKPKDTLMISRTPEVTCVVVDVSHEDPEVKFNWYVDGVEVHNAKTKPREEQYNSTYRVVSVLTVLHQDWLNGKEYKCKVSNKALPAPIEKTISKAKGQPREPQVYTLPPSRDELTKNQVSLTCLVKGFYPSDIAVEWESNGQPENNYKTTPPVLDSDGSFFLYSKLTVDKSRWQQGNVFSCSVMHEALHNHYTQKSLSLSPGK

| TNF-α secretion from THP-1 cells on wells coated with 10 ug/well heat aggregated protein [ng/well] | Substance |
| --- | --- |
| < 2 | RAGE fusion protein TTP-4000 (Fc fusion) |
| > 40 | human IgG1 (heat aggregated, coated on the well) (antibody) |
